Measured values from article PMC9114768 (2022).

B1: monoclonal antibody 127 (antibody, V domains shown)
VH: QVQLQQPGAELVKPGASVKLSCKASGYTFTSYWMHWVKQRPGQGLEWIGEINPSNGRKNYNEKFKSKATLTVDKSSSTAYMQLSSLTSEDSAVYYCVRGDYGSSYYWYFDVWGAGTTVTVSS
VL: not shown
B2: monoclonal antibody 150 (antibody, V domains shown)
VH: B1 VH
VL: not shown

What was measured:
[1] = biological target: C-terminal Fc-tagged human ACE2 recombinant protein (human, UniProt Q9BYF1); assay: SPR
[2] = biological target: His-tagged SARS-CoV-2 S1-RBD recombinant protein, wild type (SARS-CoV-2, UniProt P0DTC2 319-541); assay: SPR

C-terminal Fc-tagged human ACE2 recombinant protein, sequence (Q9BYF1 18-740): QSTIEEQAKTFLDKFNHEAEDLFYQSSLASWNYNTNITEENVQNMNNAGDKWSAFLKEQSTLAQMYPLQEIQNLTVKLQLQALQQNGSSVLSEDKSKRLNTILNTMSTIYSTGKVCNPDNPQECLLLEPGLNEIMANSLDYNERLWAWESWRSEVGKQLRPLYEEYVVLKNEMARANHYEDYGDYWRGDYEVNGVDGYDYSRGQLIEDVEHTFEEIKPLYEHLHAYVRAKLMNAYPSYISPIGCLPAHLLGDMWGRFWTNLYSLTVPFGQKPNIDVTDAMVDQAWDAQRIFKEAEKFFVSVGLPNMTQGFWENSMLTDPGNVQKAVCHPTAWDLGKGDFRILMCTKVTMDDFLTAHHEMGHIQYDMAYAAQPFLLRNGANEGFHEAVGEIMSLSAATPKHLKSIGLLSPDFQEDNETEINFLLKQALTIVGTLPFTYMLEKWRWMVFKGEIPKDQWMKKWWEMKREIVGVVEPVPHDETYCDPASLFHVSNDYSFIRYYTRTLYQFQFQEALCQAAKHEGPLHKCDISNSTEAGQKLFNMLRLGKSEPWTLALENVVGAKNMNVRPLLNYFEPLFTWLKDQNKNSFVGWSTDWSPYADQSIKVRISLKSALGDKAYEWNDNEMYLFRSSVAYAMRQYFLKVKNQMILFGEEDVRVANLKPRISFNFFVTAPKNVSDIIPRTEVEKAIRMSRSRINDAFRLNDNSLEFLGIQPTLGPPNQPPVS

Binder	koff [1]	koff [2]
B1	0.000442 s⁻¹	0.00013 s⁻¹
B2	0.00039 s⁻¹	0.000441 s⁻¹
